The text below walks through data of the supplement of paper PMC9428881.

The data set is described as follows: background-corrected fluorescence of 3'-dye-labeled ssDNA relative to brightest sequence (3'-GCGCG) (fraction); higher = brighter dye fluorescence (less quenching). An outline of the steps:
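Subtracting background from unlabeled oligos and scaling to the brightest sequence gave the reported fluorescence. Single-stranded DNA bearing a 3' Cy3 or Cy5 dye next to each of 1024 permuted pentamers was assembled on glass slides by light-directed phosphoramidite synthesis. Following a 2 h r.t. acetonitrile wash, slides were scanned at 532 or 635 nm before and after overnight ethylenediamine/ethanol deprotection, and values were averaged over 10 features per array and at least 3 syntheses.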

± gives the standard error.

With “TTTTTGCATGCGCATGCTGATTTTTTTTTTTTTTTTATAC [CATAT]”, the background-corrected fluorescence reads like this: (dye: Cy3 (3' terminal)) 0.449 ± 0.022; (dye: Cy5 (3' terminal)) 0.333 ± 0.035.
In the case of “TTTTTGCATGCGCATGCTGCTTTTTTTTTTTTTTTTATAA [AATAT]”, the background-corrected fluorescence was found to be 0.55 ± 0.038 (dye: Cy3 (3' terminal)) and 0.441 ± 0.069 (dye: Cy5 (3' terminal)).
“TTTTTGCATGCTCAGCAGCATTTTTTTTTTTTTTTTAGTT [TTGAT]” gave a background-corrected fluorescence (dye: Cy3 (3' terminal)) of 0.592 ± 0.023 and a background-corrected fluorescence (dye: Cy5 (3' terminal)) of 0.411 ± 0.032.
For the sequence “TTTTTGCATGCTCAGCATCATTTTTTTTTTTTTTTTAGTG [GTGAT]”, the background-corrected fluorescence runs as follows: (dye: Cy3 (3' terminal)) 0.541 ± 0.027; (dye: Cy5 (3' terminal)) 0.455 ± 0.053.
In the same order, the values of “TTTTTGCATGCTCAGCATGATTTTTTTTTTTTTTTTAGTC [CTGAT]” are 0.492 ± 0.026 and 0.363 ± 0.023.
On to “TTTTTGCATGCTCAGCATGCTTTTTTTTTTTTTTTTAGTA [ATGAT]”, for which the background-corrected fluorescence runs as follows: (dye: Cy3 (3' terminal)) 0.566 ± 0.018; (dye: Cy5 (3' terminal)) 0.491 ± 0.042.
In the same order, the values of “TTTTTGCATGCTCATCAGCATTTTTTTTTTTTTTTTAGGT [TGGAT]” are 0.634 ± 0.019 and 0.543 ± 0.033.
On the same counts, the results for “TTTTTGCATGCTCATCATCATTTTTTTTTTTTTTTTAGGG [GGGAT]” are 0.653 ± 0.032 and 0.55 ± 0.037.
On the same counts, the results for “TTTTTGCATGCTCATCATGATTTTTTTTTTTTTTTTAGGC [CGGAT]” are 0.617 ± 0.027 and 0.464 ± 0.026.
Take “TTTTTGCATGCTCATCATGCTTTTTTTTTTTTTTTTAGGA [AGGAT]”: the background-corrected fluorescence is 0.747 ± 0.018 (dye: Cy3 (3' terminal)) and 0.617 ± 0.032 (dye: Cy5 (3' terminal)).
On the same counts, the results for “TTTTTGCATGCTCATGAGCATTTTTTTTTTTTTTTTAGCT [TCGAT]” are 0.57 ± 0.025 and 0.42 ± 0.035.
With “TTTTTGCATGCTCATGATCATTTTTTTTTTTTTTTTAGCG [GCGAT]”, the background-corrected fluorescence reads like this: (dye: Cy3 (3' terminal)) 0.658 ± 0.008; (dye: Cy5 (3' terminal)) 0.494 ± 0.055.
In the same order, the values of “TTTTTGCATGCTCATGATGATTTTTTTTTTTTTTTTAGCC [CCGAT]” are 0.425 ± 0.017 and 0.311 ± 0.015.
As for “TTTTTGCATGCTCATGATGCTTTTTTTTTTTTTTTTAGCA [ACGAT]”, the background-corrected fluorescence by setting is: (dye: Cy3 (3' terminal)) 0.52 ± 0.038; (dye: Cy5 (3' terminal)) 0.447 ± 0.024.
As to “TTTTTGCATGCTCATGCGCATTTTTTTTTTTTTTTTAGAT”, the background-corrected fluorescence by setting is: (dye: Cy3 (3' terminal)) 0.569 ± 0.031; (dye: Cy5 (3' terminal)) 0.463 ± 0.02.
“TTTTTGCATGCTCATGCTCATTTTTTTTTTTTTTTTAGAG [GAGAT]”: the background-corrected fluorescence was determined as 0.591 ± 0.014 (dye: Cy3 (3' terminal)) and 0.477 ± 0.059 (dye: Cy5 (3' terminal)).
“TTTTTGCATGCTCATGCTGATTTTTTTTTTTTTTTTAGAC [CAGAT]”: the background-corrected fluorescence is, setting by setting: (dye: Cy3 (3' terminal)) 0.463 ± 0.023; (dye: Cy5 (3' terminal)) 0.369 ± 0.015.
“TTTTTGCATGCTCATGCTGCTTTTTTTTTTTTTTTTAGAA [AAGAT]”: the background-corrected fluorescence was 0.639 ± 0.018 (dye: Cy3 (3' terminal)) and 0.533 ± 0.052 (dye: Cy5 (3' terminal)).
The sequence “TTTTTGCATGCTGAGCAGCATTTTTTTTTTTTTTTTACTT [TTCAT]” came in with a background-corrected fluorescence (dye: Cy3 (3' terminal)) of 0.504 ± 0.046 and a background-corrected fluorescence (dye: Cy5 (3' terminal)) of 0.358 ± 0.039.
Turning to “TTTTTGCATGCTGAGCATCATTTTTTTTTTTTTTTTACTG [GTCAT]”, the background-corrected fluorescence runs as follows: (dye: Cy3 (3' terminal)) 0.499 ± 0.024; (dye: Cy5 (3' terminal)) 0.373 ± 0.027.
With “TTTTTGCATGCTGAGCATGATTTTTTTTTTTTTTTTACTC [CTCAT]”, the background-corrected fluorescence is, setting by setting: (dye: Cy3 (3' terminal)) 0.385 ± 0.03; (dye: Cy5 (3' terminal)) 0.273 ± 0.018.
Regarding “TTTTTGCATGCTGAGCATGCTTTTTTTTTTTTTTTTACTA [ATCAT]”, the background-corrected fluorescence (dye: Cy3 (3' terminal)) is 0.502 ± 0.027 and the background-corrected fluorescence (dye: Cy5 (3' terminal)) stood at 0.388 ± 0.028.
As to “TTTTTGCATGCTGATCAGCATTTTTTTTTTTTTTTTACGT”, the background-corrected fluorescence turned out to be 0.584 ± 0.018 (dye: Cy3 (3' terminal)) and 0.482 ± 0.038 (dye: Cy5 (3' terminal)).
Take “TTTTTGCATGCTGATCATCATTTTTTTTTTTTTTTTACGG [GGCAT]”: the background-corrected fluorescence came out at 0.697 ± 0.037 (dye: Cy3 (3' terminal)) and 0.514 ± 0.04 (dye: Cy5 (3' terminal)).
For “TTTTTGCATGCTGATCATGATTTTTTTTTTTTTTTTACGC [CGCAT]”, the background-corrected fluorescence reads like this: (dye: Cy3 (3' terminal)) 0.523 ± 0.0065; (dye: Cy5 (3' terminal)) 0.439 ± 0.032.
Consider “TTTTTGCATGCTGATCATGCTTTTTTTTTTTTTTTTACGA [AGCAT]”, for which the background-corrected fluorescence was found to be 0.627 ± 0.026 (dye: Cy3 (3' terminal)) and 0.491 ± 0.031 (dye: Cy5 (3' terminal)).
In the same order, the values of “TTTTTGCATGCTGATGAGCATTTTTTTTTTTTTTTTACCT [TCCAT]” are 0.461 ± 0.017 and 0.345 ± 0.023.
“TTTTTGCATGCTGATGATCATTTTTTTTTTTTTTTTACCG [GCCAT]”: the background-corrected fluorescence is, setting by setting: (dye: Cy3 (3' terminal)) 0.55 ± 0.026; (dye: Cy5 (3' terminal)) 0.439 ± 0.027.
Regarding “TTTTTGCATGCTGATGATGATTTTTTTTTTTTTTTTACCC [CCCAT]”, the background-corrected fluorescence is, setting by setting: (dye: Cy3 (3' terminal)) 0.408 ± 0.012; (dye: Cy5 (3' terminal)) 0.276 ± 0.019.
